The subject of data set [1] is T1, hKSR-2-FLAG (full-length human KSR-2 with the FLAG epitope at its carboxyl terminus).
T1 sequence: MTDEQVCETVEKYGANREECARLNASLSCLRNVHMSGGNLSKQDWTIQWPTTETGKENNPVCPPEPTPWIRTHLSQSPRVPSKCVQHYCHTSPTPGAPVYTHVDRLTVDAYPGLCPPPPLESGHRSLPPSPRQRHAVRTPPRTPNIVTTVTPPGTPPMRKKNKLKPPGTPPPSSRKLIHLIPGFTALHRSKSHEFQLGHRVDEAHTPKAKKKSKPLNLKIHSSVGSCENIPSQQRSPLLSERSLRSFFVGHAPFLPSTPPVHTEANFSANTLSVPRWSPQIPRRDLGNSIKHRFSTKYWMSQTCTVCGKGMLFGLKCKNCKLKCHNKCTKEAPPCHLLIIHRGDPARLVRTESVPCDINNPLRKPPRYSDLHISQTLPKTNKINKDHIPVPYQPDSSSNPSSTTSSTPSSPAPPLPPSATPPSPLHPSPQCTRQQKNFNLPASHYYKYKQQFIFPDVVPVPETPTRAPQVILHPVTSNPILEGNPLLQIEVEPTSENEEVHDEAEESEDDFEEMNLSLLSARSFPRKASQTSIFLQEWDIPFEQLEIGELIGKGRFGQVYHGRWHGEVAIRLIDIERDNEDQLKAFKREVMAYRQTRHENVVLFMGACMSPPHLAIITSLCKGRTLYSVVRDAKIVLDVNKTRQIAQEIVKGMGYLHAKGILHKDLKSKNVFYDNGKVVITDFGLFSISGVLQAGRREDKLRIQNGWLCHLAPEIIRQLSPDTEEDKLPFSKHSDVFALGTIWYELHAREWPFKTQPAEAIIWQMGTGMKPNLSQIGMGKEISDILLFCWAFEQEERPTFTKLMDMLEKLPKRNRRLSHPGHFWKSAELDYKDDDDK

The target in data set [2] is T2, hKSR-2-FLAG (full-length human KSR-2 with the FLAG epitope at its carboxyl terminus) (human, UniProt Q6VAB6 122-950, limits assumed).
T2 construct: Expressed in 293T cells from pcDNA-DEST-40; Tested in cell lysates, or eluted from anti-FLAG beads with FLAG peptide for the kinase assay
T2 sequence: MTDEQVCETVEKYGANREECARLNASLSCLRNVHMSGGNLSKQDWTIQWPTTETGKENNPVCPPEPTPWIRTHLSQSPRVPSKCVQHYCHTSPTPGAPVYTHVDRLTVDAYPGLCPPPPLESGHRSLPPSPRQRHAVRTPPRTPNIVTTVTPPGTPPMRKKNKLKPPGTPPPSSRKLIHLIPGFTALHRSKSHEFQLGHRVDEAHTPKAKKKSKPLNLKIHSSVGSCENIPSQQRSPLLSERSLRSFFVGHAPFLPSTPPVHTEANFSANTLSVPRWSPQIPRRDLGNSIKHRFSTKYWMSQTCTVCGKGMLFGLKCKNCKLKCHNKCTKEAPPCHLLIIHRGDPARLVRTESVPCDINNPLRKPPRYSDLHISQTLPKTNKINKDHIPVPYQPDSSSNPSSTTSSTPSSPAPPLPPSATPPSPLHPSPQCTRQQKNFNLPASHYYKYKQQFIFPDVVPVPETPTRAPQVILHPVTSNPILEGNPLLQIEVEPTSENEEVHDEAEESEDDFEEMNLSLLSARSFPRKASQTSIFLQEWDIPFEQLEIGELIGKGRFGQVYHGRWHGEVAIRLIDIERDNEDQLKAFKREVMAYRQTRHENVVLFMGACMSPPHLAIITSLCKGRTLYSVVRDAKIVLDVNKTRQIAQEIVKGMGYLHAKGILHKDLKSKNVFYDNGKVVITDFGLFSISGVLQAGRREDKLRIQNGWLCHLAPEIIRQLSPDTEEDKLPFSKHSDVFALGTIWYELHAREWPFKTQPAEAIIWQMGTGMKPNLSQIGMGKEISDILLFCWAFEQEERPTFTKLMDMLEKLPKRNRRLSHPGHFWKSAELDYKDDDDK
Put plainly: anti-FLAG immunoprecipitation from KSR-2-FLAG-transfected 293T lysate (about 1 mg protein), Western blot with commercial antibodies. The protocol: To identify proteins that interact with human KSR-2, 293T cells were transfected with KSR-2-FLAG as described above. Cells transfected with FLAG vector alone served as a control. Cells were lysed as described above 48 h posttransfection. Protein concentrations were determined using the BCA protein assay. Cell lysates containing approximately 1 mg protein were subjected to anti-FLAG antibody immunoprecipitation followed by electrophoresis on a 2D gel resolved in only one dimension. The proteins were then transferred to nitrocellulose membranes and probed with various commercially available antibodies (Cell Signaling Technology, Beverly, Mass.) using the MN20SL Miniblotter (Immunetics, Cambridge, Mass.).
(In general: A western blot detects proteins with antibodies after separation by electrophoresis.)

Data set [3] concerns the target T3, hKSR-2-FLAG (full-length human KSR-2 with the FLAG epitope at its carboxyl terminus).
T3 chain: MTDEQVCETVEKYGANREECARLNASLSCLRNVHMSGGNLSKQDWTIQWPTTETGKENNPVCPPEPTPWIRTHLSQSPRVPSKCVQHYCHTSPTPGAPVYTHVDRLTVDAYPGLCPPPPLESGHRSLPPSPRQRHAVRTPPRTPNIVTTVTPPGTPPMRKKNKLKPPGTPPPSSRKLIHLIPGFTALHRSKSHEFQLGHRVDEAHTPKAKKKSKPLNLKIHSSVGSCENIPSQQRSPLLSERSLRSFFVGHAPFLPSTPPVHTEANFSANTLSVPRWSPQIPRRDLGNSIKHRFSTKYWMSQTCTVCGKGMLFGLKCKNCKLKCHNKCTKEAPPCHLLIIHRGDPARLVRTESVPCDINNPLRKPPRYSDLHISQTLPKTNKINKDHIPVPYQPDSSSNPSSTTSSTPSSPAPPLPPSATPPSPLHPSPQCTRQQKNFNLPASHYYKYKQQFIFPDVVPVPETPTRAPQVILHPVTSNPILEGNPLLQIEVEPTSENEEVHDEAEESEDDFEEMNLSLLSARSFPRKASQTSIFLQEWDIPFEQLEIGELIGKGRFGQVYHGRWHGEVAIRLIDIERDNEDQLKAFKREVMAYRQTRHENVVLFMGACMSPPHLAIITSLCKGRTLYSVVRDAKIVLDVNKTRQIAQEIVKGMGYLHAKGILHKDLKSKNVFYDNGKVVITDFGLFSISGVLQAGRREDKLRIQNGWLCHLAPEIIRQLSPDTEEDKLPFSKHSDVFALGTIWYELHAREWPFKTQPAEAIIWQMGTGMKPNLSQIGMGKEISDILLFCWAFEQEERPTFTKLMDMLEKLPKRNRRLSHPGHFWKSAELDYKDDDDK

Take “Raf enzyme (Upstate Biotechnology, Inc.)”: in data set [1], the “Raf kinase activity (in vitro kinase assay, 33P phosphorylation of GST-MEK1-His6)” value is given as “Raf kinase activity was upregulated”.

B1: P.SEK1 (enzyme, UniProt P45985 2-399, looked up)
chain: AAPSPSGGGGSGGGSGSGTPGPVGSPAPGHPAVSSMQGKRKALKLNFANPPFKSTARFTLNPNPTGVQNPHIERLRTHSIESSGKLKISPEQHWDFTAEDLKDLGEIGRGAYGSVNKMVHKPSGQIMAVKRIRSTVDEKEQKQLLMDLDVVMRSSDCPYIVQFYGALFREGDCWICMELMSTSFDKFYKYVYSVLDDVIPEEILGKITLATVKALNHLKENLKIIHRDIKPSNILLDRSGNIKLCDFGISGQLVDSIAKTRDAGCRPYMAPERIDPSASRQGYDVRSDVWSLGITLYELATGRFPYPKWNSVFDQLTQVVKGDPPQLSNSEEREFSPSFINFVNLCLTKDESKRPKYKELLKHPFILMYEERAVEVACYVCKILDQMPATPSSPMYVD
modifications: phosphorylated (sites not given)
notes: Endogenous protein of 293T cells, probed with a commercial antibody; also called phosphorylated SEK1
For B1, in data set [2], the binding result was “no binding”.

B2: purified recombinant Cot/Tp12 (protein)
chain: MENLYASEEPAVYEPSLMTMCQDSNQNDERSKSLLLSGQEVPWLSSVRYGTVEDLLAFANHISNTAKHFYGQRPQESGILLNMVITPQNGRYQIDSDVLLIPWKLTYRNIGSDFIPRGAFGKVYLAQDIKTKKRMACKLIPVDQFKPSDVEIQACFRHENIAELYGAVLWGETVHLFMEAGEGGSVLEKLESCGPMREFEIIWVTKHVLKGLDFLHSKKVIHHDIKPSNIVFMSTKAVLVDFGLSVQMTEDVYFPKDLRGTEIYMSPEVILCRGHSTKADIYSLGATLIHMQTGTPPWVKRYPRSAYPSYLYIIHKQAPPLEDIADDCSPGMRELIEASLERNPNHRPRAADLLKHEALNPPREDQPR
For the molecule B2, the “Cot/Tp12 kinase activity (in vitro kinase assay, 33P phosphorylation of GST-MEK1-His6)” value in data set [3] is “KSR-2 reduced Cot/Tp12 kinase activity in a dose-dependent manner”.
